Results from patent US20140072613A1, “Compositions and Methods for Treating Cutaneous Scarring” (priority 2012, published 2014).

Experiments:
266 human kinases [1] = target: 266 human kinases (Homo sapiens, UniProt P42684); test: biochemical; format: biochemical; settings: Arg(h); 100 μM
From the text: (§1) Specifically, in these assays, a positively charged substrate is phosphorylated with a radiolabeled phosphate group from an ATP if the kinase is not inhibited by an inhibitor peptide. The positively charged substrate then is attracted to a negatively charged filter membrane, quantified with a scintillation counter, and compared to a 100% activity control.

266 human kinases [2] = target: 266 human kinases (Homo sapiens, UniProt P53778); test: biochemical; format: biochemical; settings: SAPK3(h); 100 μM
From the text: as §1

266 human kinases [3] = target: 266 human kinases (Homo sapiens, UniProt Q9UPE1); test: biochemical; format: biochemical; settings: MSSK1(h); 100 μM
Chain of 266 human kinases (Homo sapiens, UniProt Q9UPE1) (Q9UPE1 whole entry): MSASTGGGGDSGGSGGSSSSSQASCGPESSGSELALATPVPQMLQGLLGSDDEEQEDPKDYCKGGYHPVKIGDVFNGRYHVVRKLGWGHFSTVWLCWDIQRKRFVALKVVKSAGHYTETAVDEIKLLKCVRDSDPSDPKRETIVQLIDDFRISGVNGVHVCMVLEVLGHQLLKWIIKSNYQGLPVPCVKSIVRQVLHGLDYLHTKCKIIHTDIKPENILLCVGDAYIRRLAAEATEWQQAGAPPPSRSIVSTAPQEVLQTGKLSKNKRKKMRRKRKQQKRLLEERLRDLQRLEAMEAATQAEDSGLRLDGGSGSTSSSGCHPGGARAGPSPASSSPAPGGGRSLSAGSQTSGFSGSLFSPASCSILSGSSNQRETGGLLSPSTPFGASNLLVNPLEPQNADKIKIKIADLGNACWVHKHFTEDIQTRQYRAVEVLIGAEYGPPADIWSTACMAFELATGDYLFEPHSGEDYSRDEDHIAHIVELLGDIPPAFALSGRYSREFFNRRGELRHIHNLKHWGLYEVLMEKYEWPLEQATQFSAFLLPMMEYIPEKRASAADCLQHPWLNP
From the text: as §1

266 human kinases [4] = target: 266 human kinases (Homo sapiens, UniProt O75676); test: biochemical; format: biochemical; settings: MSK2(h); 100 μM
From the text: as §1

266 human kinases [5] = target: T1, 266 human kinases (Homo sapiens, UniProt Q9BXA7); test: biochemical; format: biochemical; settings: TSSK1(h); 100 μM
T1 sequence (Q9BXA7 1-367): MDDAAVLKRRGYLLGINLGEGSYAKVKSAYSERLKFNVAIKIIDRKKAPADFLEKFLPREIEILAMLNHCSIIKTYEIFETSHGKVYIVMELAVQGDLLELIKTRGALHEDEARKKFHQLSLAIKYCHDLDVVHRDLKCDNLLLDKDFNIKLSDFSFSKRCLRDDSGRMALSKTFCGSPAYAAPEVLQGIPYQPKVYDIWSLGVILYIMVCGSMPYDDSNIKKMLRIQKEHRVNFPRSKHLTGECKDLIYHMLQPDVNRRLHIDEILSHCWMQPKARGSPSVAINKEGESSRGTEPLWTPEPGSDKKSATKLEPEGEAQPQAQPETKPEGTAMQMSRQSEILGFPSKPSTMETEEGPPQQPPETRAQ
From the text: as §1

266 human kinases [6] = target: 266 human kinases (Homo sapiens, UniProt P12931, T341M); test: biochemical; format: biochemical; settings: Src(T341M)(h); 100 μM
From the text: as §1

266 human kinases [7] = target: 266 human kinases (Homo sapiens, UniProt O43353); test: biochemical; format: biochemical; settings: RIPK2(h); 100 μM
Chain of 266 human kinases (Homo sapiens, UniProt O43353) (O43353 whole entry): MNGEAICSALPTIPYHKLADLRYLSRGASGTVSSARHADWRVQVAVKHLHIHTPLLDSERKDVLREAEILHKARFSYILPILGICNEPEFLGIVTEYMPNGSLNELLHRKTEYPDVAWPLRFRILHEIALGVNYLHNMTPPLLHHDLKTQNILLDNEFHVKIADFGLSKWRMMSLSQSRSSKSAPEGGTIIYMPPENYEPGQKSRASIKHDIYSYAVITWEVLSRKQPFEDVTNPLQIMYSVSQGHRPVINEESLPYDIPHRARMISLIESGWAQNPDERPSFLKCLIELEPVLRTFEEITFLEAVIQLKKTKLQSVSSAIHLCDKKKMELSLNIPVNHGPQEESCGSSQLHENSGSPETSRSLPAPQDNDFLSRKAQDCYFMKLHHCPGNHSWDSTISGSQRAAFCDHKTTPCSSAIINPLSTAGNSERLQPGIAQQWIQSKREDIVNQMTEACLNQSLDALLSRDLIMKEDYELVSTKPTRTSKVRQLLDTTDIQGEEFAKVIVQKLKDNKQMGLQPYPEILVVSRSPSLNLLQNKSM
From the text: as §1

266 human kinases [8] = target: 266 human kinases (Homo sapiens, UniProt P41240); test: biochemical; format: biochemical; settings: CSK(h); 100 μM
Chain of 266 human kinases (Homo sapiens, UniProt P41240) (P41240 whole entry): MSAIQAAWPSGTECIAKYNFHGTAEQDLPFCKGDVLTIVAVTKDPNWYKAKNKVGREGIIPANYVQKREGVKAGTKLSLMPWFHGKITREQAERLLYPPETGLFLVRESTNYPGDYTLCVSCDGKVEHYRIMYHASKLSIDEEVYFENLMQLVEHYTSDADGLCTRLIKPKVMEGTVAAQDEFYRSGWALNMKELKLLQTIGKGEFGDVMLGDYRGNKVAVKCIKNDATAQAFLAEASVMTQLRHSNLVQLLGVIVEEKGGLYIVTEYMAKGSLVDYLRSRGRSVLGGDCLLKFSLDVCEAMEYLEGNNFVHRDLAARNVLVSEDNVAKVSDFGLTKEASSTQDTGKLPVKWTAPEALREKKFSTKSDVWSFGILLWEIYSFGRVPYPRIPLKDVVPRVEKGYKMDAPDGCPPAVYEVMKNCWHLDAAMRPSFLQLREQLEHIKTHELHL
From the text: as §1

DMPK (h) = target: T2, DMPK (h) (Homo sapiens, UniProt Q09013); test: Millipore radiometric kinase assay (IC50 Profiler Express); format: biochemical; settings: DMPK(h); 100 μM
T2 sequence (Q09013 1-629): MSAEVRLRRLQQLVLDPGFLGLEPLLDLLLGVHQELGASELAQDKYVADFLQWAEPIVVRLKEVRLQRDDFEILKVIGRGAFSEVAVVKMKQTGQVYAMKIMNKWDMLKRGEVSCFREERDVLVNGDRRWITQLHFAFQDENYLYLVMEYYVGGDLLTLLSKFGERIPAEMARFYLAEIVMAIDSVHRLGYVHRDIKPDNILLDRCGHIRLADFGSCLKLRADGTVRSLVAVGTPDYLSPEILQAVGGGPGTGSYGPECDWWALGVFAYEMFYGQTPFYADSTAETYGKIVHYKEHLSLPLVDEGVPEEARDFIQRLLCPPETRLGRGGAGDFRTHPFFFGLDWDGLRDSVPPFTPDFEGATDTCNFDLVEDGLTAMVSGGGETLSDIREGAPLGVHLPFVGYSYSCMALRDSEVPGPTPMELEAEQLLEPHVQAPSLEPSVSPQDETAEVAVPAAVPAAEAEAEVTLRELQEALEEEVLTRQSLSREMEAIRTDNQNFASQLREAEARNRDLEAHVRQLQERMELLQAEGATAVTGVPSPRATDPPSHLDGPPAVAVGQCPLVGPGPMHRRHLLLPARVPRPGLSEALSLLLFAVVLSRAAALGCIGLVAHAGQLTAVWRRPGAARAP
From the text: as §1

LOK (h) = LOK (h) (Homo sapiens, UniProt O94804); test: as above; format: biochemical; settings: LOK(h); 100 μM
Chain of LOK (h) (O94804 whole entry): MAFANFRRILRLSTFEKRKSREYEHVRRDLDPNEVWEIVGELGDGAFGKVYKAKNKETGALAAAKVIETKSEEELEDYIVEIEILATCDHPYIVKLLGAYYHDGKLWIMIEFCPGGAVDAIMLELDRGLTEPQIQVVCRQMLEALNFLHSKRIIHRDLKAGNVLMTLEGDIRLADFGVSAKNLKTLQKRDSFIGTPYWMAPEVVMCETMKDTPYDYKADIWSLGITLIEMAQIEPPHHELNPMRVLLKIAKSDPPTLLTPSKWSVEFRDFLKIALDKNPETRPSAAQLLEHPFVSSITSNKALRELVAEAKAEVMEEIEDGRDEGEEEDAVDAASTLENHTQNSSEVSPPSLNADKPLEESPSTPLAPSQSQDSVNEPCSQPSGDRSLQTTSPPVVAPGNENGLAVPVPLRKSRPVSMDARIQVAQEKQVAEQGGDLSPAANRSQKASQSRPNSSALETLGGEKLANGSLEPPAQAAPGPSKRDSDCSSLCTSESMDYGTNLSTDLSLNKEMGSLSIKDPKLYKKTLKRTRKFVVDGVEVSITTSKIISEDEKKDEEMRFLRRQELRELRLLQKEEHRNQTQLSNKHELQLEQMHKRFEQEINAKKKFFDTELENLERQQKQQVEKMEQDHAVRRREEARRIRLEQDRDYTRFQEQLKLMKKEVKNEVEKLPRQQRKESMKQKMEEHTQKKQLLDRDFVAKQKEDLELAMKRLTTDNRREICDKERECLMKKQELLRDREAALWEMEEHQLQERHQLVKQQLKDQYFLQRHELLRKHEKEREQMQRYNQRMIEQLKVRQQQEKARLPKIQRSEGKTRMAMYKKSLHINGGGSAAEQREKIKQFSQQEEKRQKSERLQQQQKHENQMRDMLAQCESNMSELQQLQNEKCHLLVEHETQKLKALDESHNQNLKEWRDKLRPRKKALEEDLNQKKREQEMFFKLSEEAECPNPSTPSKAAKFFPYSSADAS
From the text: as §1

EGFR (L861Q) (h) = EGFR (L861Q) (h) (Homo sapiens, UniProt P00533, L861Q); test: as above; format: biochemical; settings: EGFR(L861Q)(h); 100 μM
From the text: as §1

DRAK1 (h) = target: T3, DRAK1 (h) (Homo sapiens, UniProt Q9UEE5); test: as above; format: biochemical; settings: DRAK1(h); 100 μM
T3 sequence (Q9UEE5 1-414): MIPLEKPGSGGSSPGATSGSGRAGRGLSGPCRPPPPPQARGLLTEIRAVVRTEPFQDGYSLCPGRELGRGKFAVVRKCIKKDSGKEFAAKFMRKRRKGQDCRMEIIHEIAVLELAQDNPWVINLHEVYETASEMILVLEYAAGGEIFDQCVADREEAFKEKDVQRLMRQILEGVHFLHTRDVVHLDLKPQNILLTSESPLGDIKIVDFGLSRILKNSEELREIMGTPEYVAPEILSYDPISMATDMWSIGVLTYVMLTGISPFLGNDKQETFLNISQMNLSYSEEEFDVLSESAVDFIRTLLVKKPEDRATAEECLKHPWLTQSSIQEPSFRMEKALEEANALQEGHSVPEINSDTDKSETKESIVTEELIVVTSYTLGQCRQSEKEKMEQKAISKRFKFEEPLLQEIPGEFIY
From the text: as §1

Fes(h) = Fes(h) (Homo sapiens, UniProt P07332); test: biochemical; settings: 100 μM
Chain of Fes(h) (P07332 whole entry): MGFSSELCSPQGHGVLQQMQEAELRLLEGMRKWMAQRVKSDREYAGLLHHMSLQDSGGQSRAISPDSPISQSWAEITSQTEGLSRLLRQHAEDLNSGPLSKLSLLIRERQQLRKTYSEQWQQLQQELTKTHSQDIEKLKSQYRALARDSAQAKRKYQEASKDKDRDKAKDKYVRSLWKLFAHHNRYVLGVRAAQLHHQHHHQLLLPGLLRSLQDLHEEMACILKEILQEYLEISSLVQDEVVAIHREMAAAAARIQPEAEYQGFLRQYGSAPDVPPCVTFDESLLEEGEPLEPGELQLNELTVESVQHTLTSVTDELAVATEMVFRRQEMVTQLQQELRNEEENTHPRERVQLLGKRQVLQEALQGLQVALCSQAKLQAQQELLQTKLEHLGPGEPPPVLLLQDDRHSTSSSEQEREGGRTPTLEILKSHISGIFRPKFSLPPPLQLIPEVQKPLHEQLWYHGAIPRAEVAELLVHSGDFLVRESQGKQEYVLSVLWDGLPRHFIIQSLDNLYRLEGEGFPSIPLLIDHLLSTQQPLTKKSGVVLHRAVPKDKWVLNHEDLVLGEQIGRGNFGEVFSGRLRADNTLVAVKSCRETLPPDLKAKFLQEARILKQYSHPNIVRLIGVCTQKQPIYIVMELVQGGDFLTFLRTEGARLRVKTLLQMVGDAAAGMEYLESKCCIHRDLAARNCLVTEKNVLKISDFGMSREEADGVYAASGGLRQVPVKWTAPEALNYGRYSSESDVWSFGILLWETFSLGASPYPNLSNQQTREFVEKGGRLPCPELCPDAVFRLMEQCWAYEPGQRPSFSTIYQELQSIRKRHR
From the text: as §1

MSK1 (h) = MSK1 (h) (Homo sapiens, UniProt O75582); test: biochemical; settings: MSK1(h); 100 μM
From the text: as §1

Pim-1 (h) = Pim-1 (h) (Homo sapiens, UniProt P11309); test: biochemical; settings: Pim-1(h); 100 μM
Chain of Pim-1 (h) (P11309 whole entry): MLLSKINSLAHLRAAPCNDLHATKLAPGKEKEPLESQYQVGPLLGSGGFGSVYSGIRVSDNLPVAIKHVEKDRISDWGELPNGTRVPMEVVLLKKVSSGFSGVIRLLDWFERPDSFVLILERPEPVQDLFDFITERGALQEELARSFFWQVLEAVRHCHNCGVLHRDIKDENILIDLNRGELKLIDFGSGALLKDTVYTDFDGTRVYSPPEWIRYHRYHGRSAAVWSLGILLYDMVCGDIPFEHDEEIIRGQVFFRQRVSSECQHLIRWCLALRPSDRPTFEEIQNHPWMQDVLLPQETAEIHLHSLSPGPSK
From the text: as §1

FGFR2 (h) = FGFR2 (h) (Homo sapiens, UniProt P21802); test: biochemical; settings: FGFR2(h); 100 μM
From the text: as §1

CaMKI (h) = CaMKI (h) (Homo sapiens, UniProt Q14012); test: biochemical; settings: CaMKI(h); 100 μM
From the text: as §1

CaMK1δ (h) = CaMK1δ (h) (Homo sapiens, UniProt Q8IU85); test: biochemical; settings: CaMKIδ(h); 100 μM
From the text: as §1

Chain of 266 human kinases (Homo sapiens, UniProt P42684) (P42684 whole entry): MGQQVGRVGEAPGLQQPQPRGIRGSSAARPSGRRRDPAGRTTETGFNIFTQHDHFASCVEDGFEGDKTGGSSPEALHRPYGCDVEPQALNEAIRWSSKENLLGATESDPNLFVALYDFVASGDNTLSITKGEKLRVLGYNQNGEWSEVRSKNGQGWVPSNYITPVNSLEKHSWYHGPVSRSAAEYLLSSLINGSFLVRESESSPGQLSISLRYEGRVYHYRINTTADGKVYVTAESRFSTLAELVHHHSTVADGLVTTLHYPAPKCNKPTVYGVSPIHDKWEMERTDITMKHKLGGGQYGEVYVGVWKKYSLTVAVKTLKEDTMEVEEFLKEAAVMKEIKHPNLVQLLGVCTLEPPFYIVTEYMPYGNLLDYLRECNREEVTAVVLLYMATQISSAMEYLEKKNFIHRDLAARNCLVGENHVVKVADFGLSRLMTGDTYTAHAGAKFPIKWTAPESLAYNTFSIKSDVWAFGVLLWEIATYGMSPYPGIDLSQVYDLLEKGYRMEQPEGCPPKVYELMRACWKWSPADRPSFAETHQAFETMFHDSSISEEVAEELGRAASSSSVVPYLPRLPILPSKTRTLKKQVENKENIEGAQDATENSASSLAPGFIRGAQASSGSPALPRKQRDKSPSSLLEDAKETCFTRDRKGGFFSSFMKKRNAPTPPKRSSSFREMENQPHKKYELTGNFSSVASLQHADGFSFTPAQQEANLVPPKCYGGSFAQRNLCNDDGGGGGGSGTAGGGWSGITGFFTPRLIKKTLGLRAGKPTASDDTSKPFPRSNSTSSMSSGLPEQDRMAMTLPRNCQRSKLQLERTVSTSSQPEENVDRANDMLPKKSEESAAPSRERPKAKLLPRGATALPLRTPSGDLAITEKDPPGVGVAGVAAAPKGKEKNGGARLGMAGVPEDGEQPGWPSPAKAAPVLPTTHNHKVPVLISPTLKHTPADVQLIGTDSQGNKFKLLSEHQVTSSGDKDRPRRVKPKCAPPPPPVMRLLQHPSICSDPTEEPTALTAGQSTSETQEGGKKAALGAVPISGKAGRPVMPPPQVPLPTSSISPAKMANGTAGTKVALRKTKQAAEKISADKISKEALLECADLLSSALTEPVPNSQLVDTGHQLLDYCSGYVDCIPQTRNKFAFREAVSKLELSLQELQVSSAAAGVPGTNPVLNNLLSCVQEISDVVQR

Sequence	% activity (266 human kinases [1])	% activity (266 human kinases [2])	% activity (266 human kinases [3])	% activity (266 human kinases [4])	% activity (266 human kinases [5])	% activity (266 human kinases [6])	% activity (266 human kinases [7])	% activity (266 human kinases [8])	% activity (DMPK (h))	% activity (LOK (h))	% activity (EGFR (L861Q) (h))	% activity (DRAK1 (h))	% activity (Fes(h))	% activity (MSK1 (h))	% activity (Pim-1 (h))	% activity (FGFR2 (h))	% activity (CaMKI (h))	% activity (CaMK1δ (h))
HRRIKAWLKKIKALARQLGVAA (mammal) [MMI-0500]	22%	24%	22%	14%	46%	59%	30%	2%	12%	7%	15%	8%	23%	8%	0%	12%	−1%	0%
YARAAARQARAKALNRQLGVA (mammal) [MMI-0200]	82%	97%	100%	88%	98%	56%	98%	33%	66%	67%	74%	34%	74%	50%	18%	73%	21%	47%
